Read-outs that look alike come from different tables or passages of the source.
Tests used:
Asp121 [1] = molecular target: T1, Asp121 (UniProt position 121, AYRYVDWLLTV); assay: UV-vis; settings: room temperature; 0.3 M NaCl; 6-mix buffer (1.37 mM citric acid, 0.46 mM ADA, 1.04 mM MOPS, 1.25 mM TAPS, 0.81 mM CHES, 1.39 mM CAPS); pH adjusted with HCl or NaOH; unphotolyzed (dark) state, retinal-bound, in nanodisc
Asp121 [2] = molecular target: T1, Asp121; settings: DDM-solubilized, monomeric; cited from earlier work
Asp97 = Asp97 (UniProt position 97, VFRYIDWLLTV); settings: monomeric proteorhodopsin; cited from earlier work
[3] = molecular target: the molecule itself; assay: sucrose density gradient centrifugation + absorption spectra (MSP amount per GR from A280); higher-density nanodisc band NDH, reconstituted at pH 5.5, separated on a 10-40% sucrose gradient; spectra in 6-mix buffer, pH 7, 0.3 M NaCl, set to the same peak at about 540 nm

Molecule: Gloeobacter rhodopsin (GR), wild type, monomer in nanodisc (NDL) (Gloeobacter violaceus)
- pKa (Asp121 [1]): 7.41

Molecule: Gloeobacter rhodopsin (GR), wild type, trimer in nanodisc (NDH) (Gloeobacter violaceus)
- pKa (Asp121 [1]): 4.52

Molecule: Gloeobacter rhodopsin H87M, DDM-solubilized (Gloeobacter violaceus; H87M)
- pKa (Asp121 [2]): approximately 4

Molecule: Gloeobacter rhodopsin H87M, monomer in nanodisc (Gloeobacter violaceus; H87M)
- pKa (Asp121 [1]): approximately 3.72

Molecule: Proteorhodopsin (PR), monomeric (uncultured marine gamma-proteobacterium (the article says only that the gene came from a DNA fragment of gamma-proteobacteria))
- pKa (Asp97): 7.5–7.7

B1: Gloeobacter rhodopsin (GR), wild type, C-terminal His-tagged (natural protein, Gloeobacter violaceus, UniProt Q7NP59 1-298, looked up)
chain: MLMTVFSSAPELALLGSTFAQVDPSNLSVSDSLTYGQFNLVYNAFSFAIAAMFASALFFFSAQALVGQRYRLALLVSAIVVSIAGYHYFRIFNSWDAAYVLENGVYSLTSEKFNDAYRYVDWLLTVPLLLVETVAVLTLPAKEARPLLIKLTVASVLMIATGYPGEISDDITTRIIWGTVSTIPFAYILYVLWVELSRSLVRQPAAVQTLVRNMRWLLLLSWGVYPIAYLLPMLGVSGTSAAVGVQVGYTIADVLAKPVFGLLVFAIALVKTKADQESSEPHAAIGAAANKSGGSLIS
modifications: retinal bound by a protonated Schiff base linkage (residue not given)
notes: Gloeobacter rhodopsin, H+ pump from the cyanobacterium Gloeobacter violaceus; The same protein was trapped as a trimer (nanodisc band NDH) and as a monomer (nanodisc band NDL) after reconstitution at pH 5.5; also called wild-type GR; trimeric GR (in NDH); source: E. coli BL21(DE3), solubilized with DDM, purified (Ni-NTA agarose); reconstituted into MSP1E3D1/POPC nanodiscs or kept in DDM
- MSP amount per GR, NDL against NDH [3]: 3.3 fold
- stoichiometry N [3]: 3

— PMC6656774, “Functional importance of the oligomer formation of the cyanobacterial H^+ pump Gloeobacter rhodopsin” (Scientific Reports, 2019)
